Data reported in PMC2680285.
Several values for one entry are separate records, joined by “and”; a condition that tells them apart may be missing. Identical values can stand only once.

Target: T1, wild-type GADD45α (growth arrest- and DNA damage-induced gene 45α), C-terminally myc-tagged (human), P24522
T1 chain: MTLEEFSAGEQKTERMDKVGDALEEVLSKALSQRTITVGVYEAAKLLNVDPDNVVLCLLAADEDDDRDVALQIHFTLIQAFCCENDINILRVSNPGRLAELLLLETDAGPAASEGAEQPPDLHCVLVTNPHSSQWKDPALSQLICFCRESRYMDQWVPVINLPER
Assay: native gel or EMSA
Conditions: remark: other sources report otherwise

B1: wild-type GADD45α (growth arrest- and DNA damage-induced gene 45α), C-terminally myc-tagged, P24522 1-165 (natural protein)
chain: MTLEEFSAGEQKTERMDKVGDALEEVLSKALSQRTITVGVYEAAKLLNVDPDNVVLCLLAADEDDDRDVALQIHFTLIQAFCCENDINILRVSNPGRLAELLLLETDAGPAASEGAEQPPDLHCVLVTNPHSSQWKDPALSQLICFCRESRYMDQWVPVINLPER
  stoichiometry N: 3 and 4
